In US20220372112A1 (KEYMED BIOSCIENCES, published 2022) one finds binding result and EC50 data, which are given here for 1 molecule.

One assay concerns the target T1, human Claudin 18.1 (human, UniProt P56856 1-261).
T1 construct: whole, on cells
T1 sequence (looked up): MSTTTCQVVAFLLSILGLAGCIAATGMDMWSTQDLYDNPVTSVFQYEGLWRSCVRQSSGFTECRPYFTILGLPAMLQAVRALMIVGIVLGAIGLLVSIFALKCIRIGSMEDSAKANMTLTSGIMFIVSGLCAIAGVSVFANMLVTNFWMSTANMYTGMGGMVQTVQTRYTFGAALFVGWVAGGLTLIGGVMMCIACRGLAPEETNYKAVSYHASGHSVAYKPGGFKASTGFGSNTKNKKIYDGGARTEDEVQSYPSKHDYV
The assay can be described thus: flow cytometry on HEK293-Claudin 18.1 cells, chimeric IgG1. How it is done:
(§1) The HEK293-Claudin 18.1 cells, HEK293-Claudin 18.2 cells and HEK293 cells at logarithmic growth phase were taken, after digesting, added at 5×10⁴ cells/100 μL to the U-shaped 96-well plate, centrifuged at 1100 rpm for 3 minutes, the supernatant was discarded, the cells were gently patted and loosed, 50 μL of antibody diluted according to the series was added to each well (antibody concentration starts from 100 nM, 5 times dilution in 8 series), and incubate at 4° C. for 1 hour. After the incubation, 140 μL 0.5% BSA was added to each well to wash 3 times, the secondary antibody AlexaFluro647 anti-human IgG (Jackson ImmunoResearch, catalog number: 109-606-170) was added with 30 μL/well, and incubated at 4° C. for 40 minutes. After the incubation, 140 μL 0.5% BSA was added to each well to wash 3 times, and finally resuspended each well with 50 μL PBS for flow cytometry (iQue Screener) detection.
On the technique in general: In flow cytometry, cells or beads pass a laser one at a time.

The target of assay [1] is T2, human Claudin 18.2 (human, UniProt P56856-2 1-261).
T2 construct: whole, on cells
T2 sequence (looked up): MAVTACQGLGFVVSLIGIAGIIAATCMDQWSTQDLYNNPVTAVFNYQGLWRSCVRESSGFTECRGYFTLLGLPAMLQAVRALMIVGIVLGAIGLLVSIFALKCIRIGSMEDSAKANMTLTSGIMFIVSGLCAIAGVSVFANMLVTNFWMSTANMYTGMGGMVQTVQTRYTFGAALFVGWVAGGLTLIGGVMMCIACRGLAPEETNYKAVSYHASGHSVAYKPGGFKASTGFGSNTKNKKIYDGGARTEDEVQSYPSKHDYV
The assay can be described thus: flow cytometry (iQue) on cells, antibody from 100 nM in 5-fold steps; cell line not named in Example 5. On the procedure:
The cells at logarithmic growth phase were taken, blocked with 3% BSA for 30 minutes, plated at 5×10⁴ cells/100 μL into a U-shaped 96-well plate, centrifuged at 1100 rpm for 3 minutes, the supernatant was discarded, the cells were gently patted and loosed, 50 μL of antibody diluted according to the series was added to each well (antibody concentration starts from 100 nM, 5 times dilution in 8 series), incubated at 4° C. for 1 hour. After the incubation, 140 μL of 0.5% BSA was added to each well to wash 3 times, AF 647 APC anti-human secondary antibody was added with 30 μL/well and incubated at 4° C. for 40 minutes. After the incubation, 140 μL of 0.5% BSA was added to each well to wash 3 times, and finally resuspended each well with 50 μL PBS for iQue (Intellicyt, USA) detection (shown in Table 2).

The target in assay [2] is T2, human Claudin 18.2. The assay can be described thus: flow cytometry (iQue) on HEK293-Claudin 18.2 cells, chimeric IgG1. How it is done:
as §1

Usually EC50 stands for the concentration needed to bring the measured effect to its halfway point. Lower therefore signals a more potent agent.

B1: 18D10 (antibody, V domains shown)
VH: DVQLQESGPGLVKPSQSLSLTCTVTGYSITSNYAWNWIRQFPGNKLEWMGYINYSGNTNYNPSLKSRISITRDTSKNQFFLQLNSVTAEDTATYYCATSYYGNSFIYWGQGTLVTVSA
VL: DIVMTQSPSSLTVTAGEKVTMSCKSSQSLLNSGNQKNYLTWYQQKPGQPPKLLIYWASTRESGVPDRFTGSGSGTDFTLTISSVQAEDLAVYYCQNAYSFPWTFGGGTKLEIK
notes: also called Clone 18D10; 18D10 Chimera
On to B1, for which the binding result in the assay with human Claudin 18.1 was “no binding (tested: 100 nM (highest concentration tested))”. For the same molecule, the EC50 with human Claudin 18.2 [1] is 2.07 nM; with human Claudin 18.2 [2], 0.37 nM.
